Data as given in the nanobody polyreactivity screen of Harvey et al. (2022).

Test: yeast display, Sf9 membrane polyspecificity reagent, FACS + sequencing; frameworks hold sequencing errors
Outline: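 A nanobody's polyreactivity label depends on the gate it was sorted from. Yeast display cells were stained with 10% biotinylated, detergent-solubilized Sf9 membrane reagent for 1 hour at 4 °C, enriched on streptavidin microbeads and sorted by FACS. The low and high (top ~1%) gates were set on anti-HA fluorescence for expression and streptavidin fluorescence for reagent binding.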
With “QVQLVESGGGLVQAGGSISLSCAASGRIFPTNDMGWYRQAPGKERELVASIDSVGSTKYADSVKGRFTISRDNAKNTVYLQMNSLKPEDTAVYYRALQVLNYDYWGQGTQVTVSS” the “polyreactivity (PSR sort gate)” value was “low polyreactivity”. For “QVQLVESGGGLVQAGGSLCLSCAASGITFLFYAMGWYRQAPGKERELVAAITYSGGSTYYADSVKGRFTISRDNAKNTVYLQMNSLKPEDTAVYYCAADVWWSYYRYDYWGQGTQVTVSS”, the “polyreactivity (PSR sort gate)” value was “low polyreactivity”. In the case of “QVQLVESGGGLVQAGGSLCLSCAASGSTLRRYAMGWYRQAPGKERELVAAITYRSGSTYYADSVKGRFTISRDNAKNTVYLQMNSLKPEDTAVYYCAKVGYVSKYWFAGDYWGQGTQVTVSS”, the “polyreactivity (PSR sort gate)” value is reported as “high polyreactivity”. In the case of “QVQLVESGGGLVQAGGSLGLSCAASGFIFVRYAMGWYRQATGKERELVGAITSTGSTYYADSVKGRFTISRDKAKNTVYLQMNSLKPEDTAVYYCAAVSRTSITFGYYAEYDYWGQGTQVTVSS”, the “polyreactivity (PSR sort gate)” value is reported as “low polyreactivity”. In the case of “QVQLVESGGGLVQAGGSLGLSCAASGRMFGYYTLGWYRQAPGKERELVAAITSSGGRTYYADSVKGRFTISRDYAKNTVYLQMNSLKPEDTAVYYCAADVEWTSRGSYYRYYYWGQGTQVTVSS”, the “polyreactivity (PSR sort gate)” value is reported as “low polyreactivity”. In the case of “QVQLVESGGGLVQAGGSLGLSCAASGRTFGFYAMGWYRQATGKQRELVAAITSTGGSTYYADSVKGRFTISRDNAKNTVYLQMNSLKPEDNAVYYCAADSGTKRYYYWGQGTPVTVSS”, the “polyreactivity (PSR sort gate)” value is reported as “high polyreactivity”. For “QVQLVESGGGLVQAGGSLGLSCAASGSTFHLYAMGWYRQAPGKEREFVAAIRGRGGNTYADSVKGRFTISRDNAKNTVSLQMNSLKPEDTAVYYCAAPLLRVLRSPYSYNYWGQGTQVTVSS”, the “polyreactivity (PSR sort gate)” value was “low polyreactivity”. In the case of “QVQLVESGGGLVQAGGSLGLSCAATGSTIPYNAMGWYRQAPGKERELVAAINSAGGTNYADSVKGRFTISRDNAKNTVYLQMNSRKPEDTAVYYCAADGSGYYDWYYYWGQGTQVTVSS”, the “polyreactivity (PSR sort gate)” value is reported as “low polyreactivity”. With “QVQLVESGGGLVQAGGSLGLTCAASGFILAQNAMGWYRQAPGKERELVAAISRRGGRTSYADSVKGRFTISRDYAKNTVYLQMNSLKPEDTAVYYCAALPPRASSDAGGWYVAEDYWGQGTQVTVSS” the “polyreactivity (PSR sort gate)” value was “high polyreactivity”. For “QVQLVESGGGLVQAGGSLLISCAASGRTLDFNVMGWYRQAPGKERELVAAITWSGGSTYYADSVKGRFTISRDNAKNTVYLQMNSLKPEDTAVYYCAKDRWYWARRYDYWGQGTQVTVSS”, the “polyreactivity (PSR sort gate)” value was “high polyreactivity”. In the case of “QVQLVESGGGLVQAGGSLLLICAASGLTFYAKVMGWYRQAPGKERELVASISRSGGRTYYADSVKGSFTISRDNAKNTVYLQMNSLKPEDTAVYYSAAADQVGQEDDYWGQGSQVTVSS”, the “polyreactivity (PSR sort gate)” value is reported as “low polyreactivity”. For “QVQLVESGGGLVQAGGSLLLICAASGSIFYFYTMGWYRQAPGKERELVASITYSGGRTYYADSVKWSFTMSRDNAKHTVYLQMNSLKPEDPPVDYCAVRGYRRYWGQGTQVTVSS”, the “polyreactivity (PSR sort gate)” value was “high polyreactivity”. With “QVQLVESGGGLVQAGGSLLLSCAASGFNFTYYTMGWYRQAPGKERELVAAISYSGGSTYYAESVKGRFTISRDNAKNSVYLQMNSLKPEDTAVYYCAVRVSDKYISKRFEYWGQGTEVTVSS” the “polyreactivity (PSR sort gate)” value was “high polyreactivity”. For “QVQLVESGGGLVQAGGSLLLSCAASGITFGDNAMGWYRQAPGKERELVAAISSGGSTDYADSVNGRFTISRDNAKNTVYLQMNSLKPEDTAVYYCAVDWVSVPEYDYWGQGTQVTVSS”, the “polyreactivity (PSR sort gate)” value was “low polyreactivity”. In the case of “QVQLVESGGGLVQAGGSLLLSCAASGLIFSWNAMGWYRQAPGKERELVASISYSGGRTYYADSVKGRFTISRDNAKNTVYLQMNSLKPEDTAVYYCAADTNATTDPEMDYWGQGTQVTVSS”, the “polyreactivity (PSR sort gate)” value is reported as “low polyreactivity”. For “QVQLVESGGGLVQAGGSLLLSCAASGNTFVNNAMGWYRQAPGKERELVAAISRRGGTTYYADSVKGRFTISRDNAKNTVYLKMKSLKPEDTAVYYCAKYGYAFDSWGQGTQVTVSS”, the “polyreactivity (PSR sort gate)” value was “high polyreactivity”. For “QVQLVESGGGLVQAGGSLLLSCAASGRIFAYYAMGWYRQAPGKERELVAGISQRGSRTYYADSVKGRFTISRDNAKNTVYLQMNSLKPEDTAVYYCAARDRRSVTMDYWGQGTQVTVSS”, the “polyreactivity (PSR sort gate)” value was “high polyreactivity”. With “QVQLVESGGGLVQAGGSLLLSCAASGRIFRPYAMGWYRQAPGKERELVAAISSSGGSTYYADSVKGRFTISRDNAKNTVYLEMNSLKPEDTAVYYCAARITQISYGSEIEHPYYYWGQGTQVTVSS” the “polyreactivity (PSR sort gate)” value was “high polyreactivity”. For “QVQLVESGGGLVQAGGSLLLSCAASGRILDFYDMGWYRQAPGKERELVAAITNSASTYYADSVKGRFTISRDNAKNTVYLQMNRLKPEDTAVYYCNADLYRGAYYGTYWSDWGYDYWGQGTQVTVSS”, the “polyreactivity (PSR sort gate)” value was “low polyreactivity”. With “QVQLVESGGGLVQAGGSLLLSCAASGSIFGSNAMGWYTQATVKERELVAVITNGGRTYYADSVKGLFTISRDNAKNTVYLQMNSLKPEDTAVYYCAASRVYGWYGSYSTYGSVGQGTQVTVSS” the “polyreactivity (PSR sort gate)” value was “high polyreactivity”. In the case of “QVQLVESGGGLVQAGGSLLLSCAASGSIFGWYAMGWYRQAPGKERELVAAISSSDGSTYYADSVKGRFTISRDNPKNTVYLQMNSLKPEDTAVYYCATDSAFTYAQYDYWGQGTQVTVSS”, the “polyreactivity (PSR sort gate)” value is reported as “low polyreactivity”. In the case of “QVQLVESGGGLVQAGGSLLLSCAASGTTFDRNAMGGYRQAPGKEREIVDAIRFGGGSTNYADSVKGRFTISRDNAKNTVYLLMNSLKPEDTAVYYCNAERIWRYKYGYDYWGQGTQVTVSS”, the “polyreactivity (PSR sort gate)” value is reported as “high polyreactivity”. With “QVQLVESGGGLVQAGGSLLLSCDASGGTLDYYVMGWYRQAPGKERELVAAISSSGGSTYYADSVKGRFTISRDNAKNTVYLQMNCLNPEDTAVYYCAGDPSPYGDEYDYWVQGTQVTVSS” the “polyreactivity (PSR sort gate)” value was “low polyreactivity”. For “QVQLVESGGGLVQAGGSLLLSCSASGRIFGVNAMGGYRQAPGKERELVAAISAGGGNTYYADSVKGRFTISRDNAKNTVYLQMNSLKPEDTAVYYCNVQRSLRMDYWGQGTQVTVSS”, the “polyreactivity (PSR sort gate)” value was “high polyreactivity”. For “QVQLVESGGGLVQAGGSLLLSCSASGRTFAYNAMGLYRQAPGKEREWVASISSSDTSTYYADSVNGRFTISRDNAKNTVYLQMNSLKPVDTAVYYCAADGHPFKGVRYYYWGQGTQVTVSS”, the “polyreactivity (PSR sort gate)” value was “low polyreactivity”. With “QVQLVESGGGLVQAGGSLLLTCAASSSTFRPKVMGWYRQAPGKERELVAAISNGGRTYYADSLKGRFTISRDNAKNTVYLQMNSLKPEDTAVYYCAARGKTTKYNYWGQGTQVTVSS” the “polyreactivity (PSR sort gate)” value was “high polyreactivity”. In the case of “QVQLVESGGGLVQAGGSLPLRCPASGSIFYQYAMGWYRQAPGKVRELVARIRGSTGTTYYADSVKGRFTISRDNAKNTVYLHMNSLKPEDTAVYYCNAARYQGRSRFDYWGQGSQVTVSS”, the “polyreactivity (PSR sort gate)” value is reported as “high polyreactivity”. For “QVQLVESGGGLVQAGGSLPLSCAASGITLYGYAMGWNRQAPGNERELVPAISRSGSSTYYADSVKGRFTISRDNAKNTVYLQMNILKPEDTAVYYCNVYSGRYWESHKFDSWGQGTQVTVSS”, the “polyreactivity (PSR sort gate)” value was “high polyreactivity”. For “QVQLVESGGGLVQAGGSLPLSCAASGNIFVTYDMGWYRQAPGKERELVASISWNGGSTNYADSVRGLFTISRDNAKNTVYLQMNSLKPEDTAVYYCAAEYWTSYADYRYDYWGQGTQVTVSS”, the “polyreactivity (PSR sort gate)” value was “low polyreactivity”. With “QVQLVESGGGLVQAGGSLPLSCAASGRIFNGYAMGGYIQAPGKERELVAAICWRGGRTYYADSVKGRFTISRDNAMNTVYLQRNSLKAEDTAVYYCNKDLPPQGQLRNMYYWGQGTIVTVSS” the “polyreactivity (PSR sort gate)” value was “high polyreactivity”. For “QVQLVESGGGLVQAGGSLPLSCAASGRIFNYYTMGWYRPAPGKERELVAAISTRGGRTYYADSVKGRFTISRDNAKNSVYFQMNSLKPEDTAVYYCARDIRIRIVYDGIYNYWGQGTQVTVSS”, the “polyreactivity (PSR sort gate)” value was “high polyreactivity”. For “QVQLVESGGGLVQAGGSLPLSCAASGRIFYTYAMGWYRQAPGKERELVAAITYRGGSTYYADSVKGRFTISRDNAKNTVYLQMNILIPEDTAVYYCAARPGRGPDSRWRYKYDYWGQGTQVTVSS”, the “polyreactivity (PSR sort gate)” value was “high polyreactivity”. For “QVQLVESGGGLVQAGGSLPLSCAASGRTIDHYAMGWYRQAPGKERELVAAITSGGSTYYADSVKGRFTISRDNAKNTVYLQMNSLKPEDTAVYYCNKDSSFWGYYIAQVNERDYWGQGTQVTVSS”, the “polyreactivity (PSR sort gate)” value was “low polyreactivity”. With “QVQLVESGGGLVQAGGSLPLSCAASGRTYRYYAMGWYRQAPGKERELVAAITRRSGNTNYADSVKGRFTISRDNAKNTVYLQINSLKPEDTALYYCAAVGAKGARYDYWGQGTQVTVSS” the “polyreactivity (PSR sort gate)” value was “high polyreactivity”. In the case of “QVQLVESGGGLVQAGGSLPLSCAASGSIFQLNAMGWYRQAPGKERELVGSIRDGGSTSYADSVKGRFTISRDNAKNTVYLQMNSLKPADTAVYYCADLKLYIYDYWGQGTQVTVSS”, the “polyreactivity (PSR sort gate)” value is reported as “high polyreactivity”. For “QVQLVESGGGLVQAGGSLPLSCAASGSIFTYNTMGSYRQAPGKERELVATISWSGGRTYYADSVKGRVTISRDNAKNTVYLQMNSLKPEDTAVYYCAAVYYSYYGYFLPYGYWGQGTQVTVSS”, the “polyreactivity (PSR sort gate)” value was “high polyreactivity”. In the case of “QVQLVESGGGLVQAGGSLPLSCAASGSIFVGYAMGWYRQAPGKERELVAAITNSGGRTYYADSVKGRFTISRDNAKNTVYLQMNSLKPEDTAVYYCNRVTGKYRYWVGFEYWGQGTQVTVSS”, the “polyreactivity (PSR sort gate)” value is reported as “high polyreactivity”. For “QVQLVESGGGLVQAGGSLPLSCASSGSTFSTYAMGWYRQAPGKERELVAAIRWSGGSTYYADSVKGRFTLSRDNAKNTVYLLMTSLKPEDTAVYYCAKGIRRWYGGSDYWGQGTQVTVSS”, the “polyreactivity (PSR sort gate)” value was “low polyreactivity”. For “QVQLVESGGGLVQAGGSLPLTCAASGRILRAYAMGWYRQAPGNEMELVAAISFSGGSTYYADSVKGRFTISRDYAKNYVYLQINSLKPEDTAVYYCNALYTSYYRPSCMGYWGQGTQVTVSS”, the “polyreactivity (PSR sort gate)” value was “high polyreactivity”. With “QVQLVESGGGLVQAGGSLRFICAASGFSLYHYAMGWYRQAPGKERELVAAITTSGSRTYYADSVKGRFTISRDTAKITVYLQMNSLKPEDTAVYYCNAVASSTEYDYWGQGTQVTVSS” the “polyreactivity (PSR sort gate)” value was “high polyreactivity”. For “QVQLVESGGGLVQAGGSLRFICAASGNTLNYYTMGWYRQAPGKERELVAAISSSGGSTYYADSVKGRFTISRDNAKNTVYLQMNSLQPEDTAVYYCNASVINEMNYWGQGTQVTVSS”, the “polyreactivity (PSR sort gate)” value was “low polyreactivity”. For “QVQLVESGGGLVQAGGSLRFSCAASGDTFTSYAMGWYRQAPGKERELVAAISRRGGSTYYADSVKGRFTISRDNAKNTVYLQMNSLKPEDTAVYYCAAKSYSYTEFDYWGQGTQVTVSS”, the “polyreactivity (PSR sort gate)” value was “high polyreactivity”. For “QVQLVESGGGLVQAGGSLRFSCAASGFIFVSNAVGWYRQAPGKERELVAAISRRGGRTYYADSVKGRFTISRDNEKNTVYVPMNSLKPEDTAVYDCAADQYRVSHQWYDYWGQGTQVTVSS”, the “polyreactivity (PSR sort gate)” value was “high polyreactivity”.
